The values that follow come from PMC9972897 (Science immunology, 2023).

Where a chain is given by its changes, count along the chain named.

The test addresses SD1-RBD of SARS-CoV-2 S (ancestral), aa 319-591 (SARS-CoV-2, ancestral (Wuhan-Hu-1; …, UniProt P0DTC2).

B1: sd1.150 (antibody, V domains shown)
V domain 1: EVQLVESGGGVVQPGRSLRLSCAASGFTFSSHGMHWVRQAPGRGLEWVAVISFDGRNKFYVDSVKGRFTISRDNSKNTLYLHMNSLRAADTAVYYCAKDHDPDGSGSYFSNWFDAWGQGTLVTVSS
V domain 2: SYELTQPPSVSVSPGQTASITCSGDKLGDKYAYWYRQKPGQSPVVVIYQDNKRPSGIPERFSGSNSGNTATLTISGTQAMDEADYYCQAWDTYSGVFGTGTQVTVL
For the molecule B1, the binding result was “binds”.

B2: sd1.047 (antibody, V domains shown)
VH: EVQLVESGGGVVEPGRSLRLSCVASGFPFKNYGMHWVRQAPGKGLEWMAVISYDGRLEYYAESVQGRFTISRDTSRKTLYLQMDSLRVDDTAVYYCAKDGVMGFCSGDDCTPPFDSWGQGTLVTVSS
VL: QSALTQPASVSGSPGQSITISCTGTSSDVGGYNYVSWFQQYPGKAPQLLIYEVSNRPSGVSNRFSGSKSGNTASLTISGLQAEDEADYYCSSYAGSPYVFGIGTRVTVL
As to B2, the binding result is listed as “binds”.

B3: rbd.038 (antibody, V domains shown)
VH: QVQLVQSGAEVKKPGASVKVSCKASGYTFSGYYMHWVRQAPGQGLEWVGWISPTSGGTKYAQKFQGRVTMTRDTSITTVYMELNRLRSDDTAVYYCAREPFPYCTSDICHSNYFYYYAMDVWGQGTTVTVSS
VL: QSALTQPPSASGSPGQSVTISCTGSSSDLGDHNYVSWYQQHPGKAPKVMIYEVSKRPSGVPDRFSGSKSGNTASLTVSGLQAEDEADYYCSSYAGSLYVFGTGTKVTVL
For B3, the binding result is reported as “binds”.

B4: rbd.035 (antibody, V domains shown)
VH: EVQLLESGGGLIEPGGSLRLSCAASGFPFNTFAMTWVRQPPGKGLEWVATISSRGDYTFYADFVKGRFSISRDNANNALWLDMSGLRAEDTALYYCAKGESGYDLYLYGLDLWGQGTTVTVSS
VL: DIQMTQSPSSLSASVGDGVTITCRASQNINNYLSWYQKKAGKAPKLLIYGASTLHSGVPSRFSGSGSGTDFTLTISSLQPEDFASYYCQQNSPTPPWTFGQGTKVEIK
For B4, the binding result is reported as “binds”.

B5: sd1.129 (antibody, V domains shown)
VH: QVQLVQSGAEVKRPGSSVKVSCKASGGAFSNYAISWVRQAPGQGLEWMGGIIPIFGTTNYAQRFQGRVTISADESTGTAYMELSSLRFADTAIYYCARADAYSGSYYPSANWFDPWGQGTLVTVSS
VL: EIVLTQSPATLSLSPGERATLSCRASQSVSNYLAWYQQKPGQAPRLLIYDASNRATGIPARFSGSGSGTDFTLTISSLEPEDFAVYYCQQRQNWPPGWTFGQGTKVEIK
Regarding B5, the binding result was “binds”.

B6: sd1.107 (antibody, V domains shown)
VH: QVQLVQSGAEVKKPGSSVKVSCKASGGTFSSYAISWVRQAPGQGLEWMGGIIPMFGTTNYAQKFQGRVTITADESTSTAYMELSSLRSEDTAVYYCARVTHLNWRRGYEVGRISGAFDIWGQGTMVTVSS
VL: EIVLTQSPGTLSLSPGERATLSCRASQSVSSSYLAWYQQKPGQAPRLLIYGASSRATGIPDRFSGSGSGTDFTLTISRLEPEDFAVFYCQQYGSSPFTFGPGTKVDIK
As to B6, the binding result is reported as “binds”.

B7: rbd.046 (antibody, V domains shown)
VH: EVQLVESGGGVVQPGRSLRLSCAASGFTFSHYGMHWVRQAPGKGLEWVAVISYDGSNKYYADSVKGRFTISRDNSKSTLYLQMNSLRAEDTAVYYCAKGEWYYDIFTGYYPYWGQGTLVTVSS
VL: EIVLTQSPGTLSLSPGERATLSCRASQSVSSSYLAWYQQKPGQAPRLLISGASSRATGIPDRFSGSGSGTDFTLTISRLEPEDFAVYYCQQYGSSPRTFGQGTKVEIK
As to B7, the binding result is given as “binds”.

B8: sd1.032 (antibody, V domains shown)
VH: QVQLVQSGAEVKRPGSSVKVSCKASGGTFNNYAMTWVRQAPGQGLEWMGGIIPMLGTENYAQKFQGRVTITADESTSTAHMELSSLRSEDTAVYYCARLTVPTPHSYYSYGLDAWGQGTTVTVSS
VL: QSALTQPASVSGSPGQSITISCTGTSSDVGSYNLVSWFQQHAGRAPKLMIYEGNKRPSGISNRFSGSKSGNTASLTISGLQAEDEADYYCCSYAGSSTHVFGTGTKVTVL
Turning to B8, the binding result is given as “binds”.

B9: sd1.102 (antibody, V domains shown)
VH: QVQLVQSGAEVKKPGSSVKVSCKASGGTFSSYAISWVRQAPGQGLEWMGGIIPLYGTANYAQKFQGRVTITADESTSTTYMELSSLTSEDTAVYYCVRFRGGDYYYYYGMDVWGQGTTVTVSS
VL: EIVMTQSPATLSVSPGESATLSCRASQTVSTNLAWYQQKPGQAPRLLIFGASTRATGIPARFSGSGSGTEFTLSISSLQSEDFAVYYCHQYNSRRTFGQGTKLEIK
As to B9, the binding result is recorded as “binds”.

B10: sd1.132 (antibody, V domains shown)
VH: QVQLVQSGTEVKKPGSSVKVSCKASGGTFSSYAISWVRQAPGQGLEWMGGIIPMFGAPNYAQKVQGRVTITADESTSTAYMELSSLRSEDTAVYYCARMEYSNSPGRGGYYFYSNGMDVWGQGTTVTVSS
VL: EIVLTQSPATLSLSPGERATLSCRASQSVSTYLAWLQQKPGQAPRLLMYDASNRASGIPARFSGSGSGTEFTLTISSLEPEDFAVYYCQQRTYWPLTFGGGTKVEIK
B10: the binding result is “binds”.

B11: sd1.100 (antibody, V domains shown)
VH: QVQLQESGPGLVKPSQTLSLTCSVSGDSITSGNYYWSWIRQHPGKGLEWIGNIFHTGNTYYNPSLKSRVTISIDTSKNQFSLKLSSVTAADTALYYCARDHKRLEGDWFDPWGQGSLVTVSS
VL: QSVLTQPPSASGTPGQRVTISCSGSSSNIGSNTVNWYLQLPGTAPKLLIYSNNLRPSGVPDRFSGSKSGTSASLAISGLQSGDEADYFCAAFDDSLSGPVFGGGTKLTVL
With B11, the binding result is “binds”.

B12: sd1.034 (antibody, V domains shown)
VH: EVQLVESGGGVVQPGRSLRLSCAASGFSFSNYGMHWVRQAPGKGLEWVAVISYDGSHKSFADSVKGRFTISRDNSKNTLNLQMNSLRREDTAVYYCATDQGGSLGYWGQGTLVTVSS
VL: QSALTQPASVSGSPGQSITISCTGTSGDVGGYNYVSWYQHHPGKAPKLMIYDVSNRPSGVSNRFSGSKSGNTASLTISGLQAEDEADYYCSSYTSTSTSWVFGGGTKLTVL
Consider B12, for which the binding result is “binds”.

B13: rbd.048 (antibody, V domains shown)
VH: EVQLVESGGGLVQPGGSLRLSCAASGFTVSSNYMTWVRQAPGKGLEWVSVIYSGGSTFYTDSVKGRFTISRDNSKNTLYLQMNSLRAEDTAVYYCARDVVYYGMDVWGQGTTVTVSS
VL: DIQMTQSPSSLSASVGDRVTITCRASQSISSYLNWYQQKPGKAPKLLIYAASSLQSGVPSRFSGSGSGTDFTLTISSLQPEDFATYYCQESYSNSPYTFGQGTKLEIK
Take B13: the binding result is listed as “binds”.

B14: sd1.108 (antibody, V domains shown)
VH: QVQLVQSGAEVKKPGASVKVSCKASGYTFTSYYIHWVRQTPGQGLEWMGIINPRGGSTSYPQKFQGRVSMTRDTSTSTVFMELSSLRSDDTAVYYCAREHREDTAMDNQPSDSWGQGTLVTVSS
VL: DIVMTQSPDSLSVSLGERATINCKSSRSVFYSSNNKSYLAWYQQKPGQPPKLLIYWASTRESGVRDRFSGSGSGTDFTLTISSLQAEDVAVYYCQQYYNTPYTFGQGTKLEIK
For B14, the binding result is on record as “binds”.

B15: sd1.151 (antibody, V domains shown)
VH: EVQLVESGGGLVKPGGSLRLSCAVSGFTFSNAWMTWVRQAPGKGLEWVGRIKTKPEGGTTDYATPVKGRFTISRDDSIDTLYLQMNSLKTEDTAVYYCSTFSSPDHWGQGTLVTVSS
VL: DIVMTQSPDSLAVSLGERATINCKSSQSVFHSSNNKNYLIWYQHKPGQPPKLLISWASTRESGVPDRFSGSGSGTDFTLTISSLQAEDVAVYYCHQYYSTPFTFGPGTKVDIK
Regarding B15, the binding result is listed as “binds”.

B16: sd1.033 (antibody, V domains shown)
VH: QVQLVQSGAEVKKPGSSVKVSCKASGGVYSTYAVSWVRQAPGQGLEWIGGIIPMFGTANYAQNFQGRVTITADESTRTAYMEVSSLRSEDTAVYYCASPSAPTYYYDSSRYYSFDYWGQGTLVTVSS
VL: EIVLTQSPGTLSLSPGERATLSCRASQSVSSNFLAWFQQKPGQPPRLLIYGASSRATGIPDRFSGSGSGTDFTLTISRLVPEDFAVYFCQQYGSSRYSFGQGTKLEIK
As for B16, the binding result is reported as “binds”.

B17: sd1.103 (antibody, V domains shown)
VH: QVQLVQSGAEVKKPGSSMKVSCKASGGTLNNYAIIWVRQAPGQGLEWMGGIIPMFGAANYAQNFQGRVTITADESTRTAYLELSSLRSEDTAMYYCARVVIPYLGAHYYHYGVDVWGQGTTVTVSS
VL: B16 VL with S30T, F33Y, F37Y, P44A, T57A, S64N, V80E, F88Y, S98T
In the case of B17, the binding result was “binds”.

B18: sd1.039 (antibody, V domains shown)
VH: EVQLVQSGAEVKKPGESLKISCKASGYSFPTYWIGWVRQMPGKGLEWMGIIYPGDSDTRYSPSFQGQVTISADKSISTAYLQWSSLKASDTAIYYCARYGDSHIDSWGQGTLVTVSS
VL: QSVLTQPRSASASLGASVTLNCTLSSGYSKYKVEWYQQRPGKGPRFLMRVGAGGIVGSKGDGIPDRFSVLGSGLNRYLIIKNIQQEDESDYHCGADHGSGSNFAYVVFGGGTKLTVL
On to B18, for which the binding result is “binds”.

B19: rbd.043 (antibody, V domains shown)
VH: QVQLVQSGAEVKKPGSSVKVSCKVSGGSFSNYGISWVRQAPGQGLEWMGGIIPLFGPADYAQKVQGRVTITADKSTSTAYMELRSLRSEDTAVYFCARGVEIVATIVGPLVREDHYYYYGMDVWGQGTTVTVSS
VL: not shown
Take B19: the binding result is recorded as “binds”.

B20: sd1.127 (antibody, V domains shown)
VH: EVQLVESGGALVKPGGSLTLSCVASGFTFSHAWMTWVRQAPGKGLEWVGRIKTKTEGGTIDYAAPLRGRFTISRDDSKNTLYLRMNSLKIEDTAKYYCTTHSSPDYWGQGTLVTVSS
VL: DIQMTQSPSSLSASIGDRVTITCRASQGIGNSLLWYQQKRGKVPKLLIYAASTLQSGVPSRFSGSGSGTDFTLTISSLQPEDVATYYCQRYNSAPLTFGGGTKVEIK
Turning to B20, the binding result was “binds”.

B21: rbd.045 (antibody, V domains shown)
VH: QVQLQESGPGLVKPSETLSLTCTVSGGAFRSFFWTWIRQPPGKGLEWIGNIYYSGSTNYNPSLKSRVTISQDMSENQFSLKLSSVTAADTAVYYCARSQWLRGNFDHWGQGILVTVSS
VL: NFMLTQPHSVSESPGKTVTISCTATSGYIASNYVQWYQQRPGSAPTTVIYEDNQRPSGVPDRFSGSIDSSSNSASLTISGLKPEDEADYYCQSFDTAYAVFGGGTQLTVL
With B21, the binding result was “binds”.

B22: rbd.031 (antibody, V domains shown)
VH: EVQLVESGGGVVQPGRSLRLSCAASGFTFKTYGMHWVRQAPGKGLEWVAVISYEGSNEYYAESVKGRFTISRDNSKNTLYLHMNSLRAEDTAVYYCAKGEYYYHSSTYYYLDYWGRGTLVTVSS
VL: DIQMTQSPSTLSASVGDRVTITCRASQSISSWLAWYQQKPGKAPKVLIYDASSLQSGVPLRFSGSGSGTEFTLTISSLQPDDFATYYCQQYDTYWTFGQGTKVEIK
B22: the binding result is reported as “binds”.
